Results from publication PMC3034952 (Enzyme Research, 2011).

Columns and labels:
[1] = target: T1, AtPDC E1α S298A mutant, H6-tagged (Arabidopsis thaliana, UniProt P52901 18-389, S298A); assay: SEC; purified recombinant AtPDC E1 on a Superose 12 column in 50 mM TES-NaOH, pH 7.4, 50 mM NaCl, 0.1 mM TPP, 0.2 mM MgCl2; fractions analysed by SDS-PAGE and immunoblotting; settings: both partners purified
T1 sequence (looked up): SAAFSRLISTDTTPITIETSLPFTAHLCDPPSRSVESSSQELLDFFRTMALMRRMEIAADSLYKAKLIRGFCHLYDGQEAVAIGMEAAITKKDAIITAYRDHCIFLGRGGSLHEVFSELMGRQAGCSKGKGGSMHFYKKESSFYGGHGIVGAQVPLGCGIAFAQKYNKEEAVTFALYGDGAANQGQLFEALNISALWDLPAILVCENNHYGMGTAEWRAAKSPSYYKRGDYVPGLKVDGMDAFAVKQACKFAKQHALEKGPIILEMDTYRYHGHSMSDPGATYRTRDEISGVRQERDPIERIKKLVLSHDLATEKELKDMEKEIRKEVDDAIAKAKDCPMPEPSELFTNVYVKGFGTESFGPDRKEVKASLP

[2] = target: T2, AtPDC E1α S292D/S298A double mutant, H6-tagged (Arabidopsis thaliana, UniProt P52901 18-389, S292D | S298A); assay: as above; settings: both partners purified
T2 sequence (looked up): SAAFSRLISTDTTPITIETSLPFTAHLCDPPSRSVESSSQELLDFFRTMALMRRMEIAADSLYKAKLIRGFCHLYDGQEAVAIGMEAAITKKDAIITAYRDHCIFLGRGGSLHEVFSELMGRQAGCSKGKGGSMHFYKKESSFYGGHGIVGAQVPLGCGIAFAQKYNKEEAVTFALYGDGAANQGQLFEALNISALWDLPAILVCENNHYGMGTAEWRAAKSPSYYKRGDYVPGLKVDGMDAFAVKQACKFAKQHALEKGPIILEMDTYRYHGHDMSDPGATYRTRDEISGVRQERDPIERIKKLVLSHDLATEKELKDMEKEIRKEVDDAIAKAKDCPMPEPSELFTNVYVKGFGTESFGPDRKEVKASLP

[3] = target: T3, AtPDC E1α D295A mutant, H6-tagged (Arabidopsis thaliana, UniProt P52901 18-389, D295A); assay: as above; settings: both partners purified
T3 sequence (looked up): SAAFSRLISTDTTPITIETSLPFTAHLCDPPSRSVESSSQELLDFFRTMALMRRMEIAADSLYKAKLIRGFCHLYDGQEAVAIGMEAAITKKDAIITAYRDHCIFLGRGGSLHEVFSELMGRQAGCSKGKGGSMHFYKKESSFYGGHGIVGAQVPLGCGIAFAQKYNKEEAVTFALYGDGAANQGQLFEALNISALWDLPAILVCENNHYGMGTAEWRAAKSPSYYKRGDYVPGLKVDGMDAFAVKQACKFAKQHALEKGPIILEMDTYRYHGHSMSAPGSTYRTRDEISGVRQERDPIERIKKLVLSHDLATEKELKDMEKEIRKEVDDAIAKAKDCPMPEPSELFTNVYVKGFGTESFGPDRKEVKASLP

[4] = target: T4, AtPDC E1α D295N mutant, H6-tagged (Arabidopsis thaliana, UniProt P52901 18-389, D295N); assay: as above; settings: both partners purified
T4 sequence (looked up): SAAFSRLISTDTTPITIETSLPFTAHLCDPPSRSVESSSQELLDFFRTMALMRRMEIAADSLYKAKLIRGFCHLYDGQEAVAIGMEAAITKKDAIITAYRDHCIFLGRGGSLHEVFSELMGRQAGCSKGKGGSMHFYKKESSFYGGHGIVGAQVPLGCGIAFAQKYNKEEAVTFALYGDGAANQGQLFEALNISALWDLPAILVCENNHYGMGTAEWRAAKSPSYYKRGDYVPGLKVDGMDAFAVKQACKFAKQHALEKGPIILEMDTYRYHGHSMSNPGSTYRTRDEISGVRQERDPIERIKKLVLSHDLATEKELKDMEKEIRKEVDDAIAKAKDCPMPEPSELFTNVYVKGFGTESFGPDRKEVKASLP

[5] = target: T5, Arabidopsis thaliana mitochondrial pyruvate dehydrogenase E1α subunit (AtPDC E1α), wild type, H6-tagged (Arabidopsis thaliana, UniProt P52901 18-389); assay: pull-down; H6-E1α and FLAG-E1β coexpressed in E. coli; soluble fraction on a HiTrap chelating column charged with NiSO4 (immobilized metal affinity chromatography); E1α detected with monoclonal anti-E1α, E1β with anti-FLAG by immunoblot; settings: partners not purified
T5 sequence (looked up): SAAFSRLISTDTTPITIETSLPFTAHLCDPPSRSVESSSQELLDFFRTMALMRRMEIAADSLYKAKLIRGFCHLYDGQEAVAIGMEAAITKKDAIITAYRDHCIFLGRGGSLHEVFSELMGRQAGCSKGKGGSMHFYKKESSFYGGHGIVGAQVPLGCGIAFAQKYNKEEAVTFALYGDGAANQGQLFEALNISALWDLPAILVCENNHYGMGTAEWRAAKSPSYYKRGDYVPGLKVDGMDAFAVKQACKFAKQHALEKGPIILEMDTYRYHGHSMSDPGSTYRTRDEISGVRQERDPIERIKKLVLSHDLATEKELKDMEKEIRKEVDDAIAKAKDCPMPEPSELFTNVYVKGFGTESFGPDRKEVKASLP

Measured: binding result

B1: Arabidopsis thaliana mitochondrial pyruvate dehydrogenase E1β subunit (AtPDC E1β), FLAG-tagged (enzyme, UniProt Q38799 30-363, looked up)
chain: AAGAKEMTVRDALNSAIDEEMSADPKVFVMGEEVGQYQGAYKITKGLLEKYGPERVYDTPITEAGFTGIGVGAAYAGLKPVVEFMTFNFSMQAIDHIINSAAKSNYMSAGQINVPIVFRGPNGAAAGVGAQHSQCYAAWYASVPGLKVLAPYSAEDARGLLKAAIRDPDPVVFLENELLYGESFPISEEALDSSFCLPIGKAKIEREGKDVTIVTFSKMVGFALKAAEKLAEEGISAEVINLRSIRPLDRATINASVRKTSRLVTVEEGFPQHGVCAEICASVVEESFSYLDAPVERIAGADVPMPYAANLERLALPQIEDIVRASKRACYRSK
binds: all assays above
